Here are results for 2 molecules from PMC5053661, “Human papillomavirus oncogenic E6 protein regulates human β-defensin 3 (hBD3) expression via the tumor suppressor protein p53”.

The target of this data set is p53 (UniProt P04637 1-393). Briefly: EMSA; 100 ng p53, 100 nM probe; EMSA: 100 ng recombinant p53, 100 nM annealed biotin probe; binding buffer, salt, pH and temperature not given (ref 63). The settings on record: protein: commercial, chain copies: 4, label: 3'-biotin. For orientation: Mobility shift assays separate free from complexed probe on a gel.
Sequence of p53 (P04637 whole entry): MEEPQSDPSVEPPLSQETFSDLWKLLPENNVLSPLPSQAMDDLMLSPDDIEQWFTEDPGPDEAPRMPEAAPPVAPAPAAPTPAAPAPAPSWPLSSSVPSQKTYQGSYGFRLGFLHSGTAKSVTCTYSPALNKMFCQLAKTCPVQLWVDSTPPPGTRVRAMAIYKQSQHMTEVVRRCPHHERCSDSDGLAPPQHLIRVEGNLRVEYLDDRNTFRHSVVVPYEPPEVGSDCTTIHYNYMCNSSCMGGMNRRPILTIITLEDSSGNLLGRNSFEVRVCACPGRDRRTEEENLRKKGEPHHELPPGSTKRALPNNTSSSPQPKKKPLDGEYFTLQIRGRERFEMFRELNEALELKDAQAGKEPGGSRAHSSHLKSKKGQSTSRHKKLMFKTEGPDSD

B1: hBD3 -1339 mutant probe (dsDNA)
DNA 1: TGACTGTCGACCCATCTACCTGGCCCTAAATTG
DNA 2: CAATTTAGGGCCAGGTAGATGGGTCGACAGTCA
With B1, the binding result is “no binding”.

B2: hBD3 promoter -1339 p53 probe (dsDNA)
DNA 1: TGACTGTCTGCCCATCTACCTGGCCCTACAT
DNA 2: ATGTAGGGCCAGGTAGATGGGCAGACAGTCA
B2: the binding result was “binds”.
